The results in this text go back to patent publication US20220315908A1, “NOVEL GARDNERELLA ENDOLYSINS AND USES THEREOF” (priority 2019, published 2022).

For assay [1], the system named is G. vaginalis sensu stricto strain Gv_9. Briefly: Quantitative reduction in viable CFU assay in bacterial suspension. The assay is classed as cell-based, Gardnerella vaginalis sensu stricto. The settings on record: Gv_9; 5 hours, pH 5.0, anaerobic; 10 ul endolysin (0.2 mg/ml where possible) + 90 ul 5e7 CFU/ml; average of triplicate. The procedure: The lysis activity on the four main species of Gardnerella of 91 constructs (natural and domain-swapped endolysins) was quantitatively assessed using the method described in Reference Example 2. […]
(§1) The results are shown in FIGS. 8A to 8D together with Tables 5A to 5C. In FIGS. 8A to 8D, the logarithmic Y axis depicts the count of surviving cells. The dotted line indicates the limit of detection (LOD) given by plating of 2 ul of the reaction mix (500 CFU/ml). Each combination of the natural 10 H-domains and the natural 9 B-regions was assessed, including the natural endolysins (H1B1, H2B2, H3B3, etc.), plus H6B6. […] The activity of each construct was measured on each of the 4 main Gardnerella species G. vaginalis sensu stricto, G. leopoldii, G. piotii, and G. swidsinkii. All conditions have been measured in triplicate. The survival after 5 hours incubation at pH 5.0 under anaerobic conditions with endolysins vs. buffer was measured by quantitative plating. The values indicate the log 10 of the ratio of surviving CFU for treated vs. untreated cells. The average of the triplicate measurements is used. In tables 5A and 5B, high negative log 10 values, e.g. −6.7, −5.5, −4.8 etc. are associated with high enzymatic activity, while log 10 values closer to zero or even positive log 10 values are associated with low or no enzymatic activity. […] Inversely, a reduction value of −3.7 means a 10^3.7-fold (=5012-fold) reduction of viable CFU in treated sample vs. untreated control.
(§2) Gardnerella cells were recovered from cryo stock by plating on Chocolate Agar plates (Beckton Dickinson) and incubating for 48 h at 37° C. under anaerobic conditions. For Lactobacilli, BD Schaedler/5% sheep blood agar plates were used instead. Colonies were scraped from the plate, resuspended in Hardy Broth or NYC-III-HS-5.0 at the pH as indicated, and the suspension adjusted to OD (610 or 620 nm as indicated) 0.1. It has to be noted that two Tecan Microplate readers, having respectively a 610 nm or 620 nm filter, have been used interchangeably in the experiments. Although it doesn't make any difference for the experiments, the exact wavelength used is specified in each example. If not stated otherwise, 90 μl cell suspension was mixed with 10 μl endolysin solution, for the different species/endolysin combinations, in 384-well plates. OD(610-620 nm as indicated) was measured at the beginning of the reaction and at the end, either as two measurement points or as a continuous kinetic in a Tecan F200 Microplate reader. The reactions were incubated for 5 hours (or otherwise the time indicated) at 37° C. under anaerobic, micro-aerophilic or aerobic conditions as indicated. Anaerobic conditions intend that oxygen was fully depleted from the container in which the bacteria are incubated (Sigma-Aldrich anaerobic jar or sealable lunch box) with an anaerobic sachet, and the lack of oxygen was confirmed with an anaerobic indicator inside the container. Where micro-aerophilic conditions are indicated, the candle-in-a-jar method was used (tea candle lit in an appropriate sealable container, which reduces oxygen levels until the flame dies out). Then each well was diluted in 5 steps (10^−1 to 10^−5) using 96-U-well bottom plates, and 2 μl of each dilution of each reaction mix are plated on BD Chocolate agar plates or BD Schaedler/5% sheep blood agar plates for Gardnerella and Lactobacilli, respectively, for detecting and quantifying surviving CFU. Detection plates were incubated at 37° C. for 48 hours under anaerobic conditions.

For assay [2], the system named is four Gardnerella strains (Gv_9, Gv_11, Gv_17, Gv_23). Briefly: CFU reduction averaged across the four Gardnerella strains, with activity ranks. The assay is classed as cell-based. The settings on record: for average of the log 10 activities of each construct across the four Gardnerella strains: pH 5.0, 5 hours, anaerobic; for activity rank of all endolysins: rank 1-91, based on the data of Table 5B. As for the experimental part:
(§3) The lysis activity on the four main species of Gardnerella of 91 constructs (natural and domain-swapped endolysins) was quantitatively assessed using the method described in Reference Example 2. Briefly, 90 ul 5e7 CFU/ml of the indicated strain were incubated for 5 hours at pH 5.0 under anaerobic conditions with 10 ul endolysin (concentration adjusted to 0.2 mg/ml where possible, see Table 4).
as §1
as §2, with “out).” for “out). Then each well was diluted in 5 steps (10^−1 to 10^−5) using 96-U-well bottom plates, and 2 μl of each dilution of each reaction mix are plated on BD Chocolate agar plates or BD Schaedler/5% sheep blood agar plates for Gardnerella and Lactobacilli, respectively, for detecting and quantifying surviving CFU. Detection plates were incubated at 37° C. for 48 hours under anaerobic conditions.”

The subject of assay [3] is G. swidsinskii strain Gv_23. The experiment in a line: Quantitative reduction in viable CFU assay in bacterial suspension. In kind it is cell-based, Gardnerella swidsinskii. The settings on record: 5 hours, pH 5.0, anaerobic, 10 ul endolysin (0.2 mg/ml where possible) + 90 ul 5e7 CFU/ml, average of triplicate. As for the experimental part:
as §3, §1, §2

A further assay relates to G. piotii strain Gv_17. Described as above. The settings on record: 5 hours, pH 5.0, anaerobic, 10 ul endolysin (0.2 mg/ml where possible) + 90 ul 5e7 CFU/ml, average of triplicate. The assay is classed as cell-based, Gardnerella piotii. As for the experimental part:
as §3, §1, §2

For assay [4], the system named is G. leopoldii strain Gv_11. The assay is described as above. The assay is classed as cell-based, Gardnerella leopoldii. The settings on record: 5 hours, pH 5.0, anaerobic, 10 ul endolysin (0.2 mg/ml where possible) + 90 ul 5e7 CFU/ml, average of triplicate. As for the experimental part:
as §3, §1, §2

B1: H5B5: natural Gardnerella prophage endolysin from strain JCP7276 (protein)
chain: MSKKGIDVSEWQGDIDFNAVKASGVEFVIIRAGYGIGCKDKWFEQNYRKAKTAGLDVGAYWYSYANSSSEAAEEAQSCANMLSGKSFEYPVYFDLEEKSQLNRGRAFCDSLITGFCSKLEACGYYAGFYTSLSTANNLVSAHVRNRYALWIAQWNTHCSYQGSYGLWQYSSNGSVPGVAGRVDMDYAYKDYPSIIKNAGLNGCKNGGSDQAARTSSIDEVAREVINGAWGNGNERKQRLTQAGYDYTSVQNKVNKLLGVKACRKSVDELAREVIRGTWGNGNERKNRLTQAGYDYDTVQKRVNELL
modifications: EL5_strain_JCP7276
notes: natural Gardnerella prophage endolysin from strain JCP7276
With B1, the “log 10 of the ratio of surviving CFU for treated vs. untreated cells” value (“log 10 of the ratio of surviving CFU” below) is given as 0.2 log 10 in assay [1], −0.1 log 10 in assay [3], −0.1 log 10 in the assay with G. piotii strain Gv_17 and 0.3 log 10 in assay [4]. In addition, in assay [2], the “average of the log 10 activities of each construct across the four Gardnerella strains” value is on record as 0.1 log 10. Moreover, the “activity rank of all endolysins” value in assay [2] came to 87.

B2: H2B2: natural Gardnerella prophage endolysin from strain Gv18-4 (protein)
chain: MSKRGIDVSEWQGDIDFNAVKASGVEFVIIRAGYGIGCKDKWFEQNYRKAKTCGLDVGAYWYSYANSGFEAAEEAQSCVNMLSGKSFEYPVYFDLEEKSQLNRGRAFCDSLITGFCNKLESCGYYAGFYTSLSTANNLVSAHVRNRYALWIAQWNTHCSYQGSYGLWQYSSSGSVPGVAGRVDMDYAYVDYPSIIKNVGLNGCKNGGSDQAARTSSIDEVAREVINGAWGNGNERKQRLTSAGYDYASVQNKVNELLGVKACRKSVDEIAREVIRGTWGNGSTRKQRLTQAGYDYDTVQKRVNELL
modifications: EL2_strain_Gv18-4
B2: the “log 10 of the ratio of surviving CFU” value is recorded as −1.2 log 10 in assay [1], −5.4 log 10 in assay [3], −2.5 log 10 in the assay on G. piotii strain Gv_17 and −1.1 log 10 in assay [4]. Moreover, in assay [2], the “average of the log 10 activities of each construct across the four Gardnerella strains” value is −2.6 log 10. For the same molecule, the “activity rank of all endolysins” value in assay [2] was 25.

B3: H3B3: natural Gardnerella prophage endolysin from strain Gv18-4 (protein)
chain: MSKKGIDVSVWQGDIDFNSVKASGVEFVIIRAGYGIGHKDKWFEENYRKAKTAGLDVGSYWYSYASSAGEASEEAQSCVNILSGKSFEYPIYFDLEEKSQLNRGRDFCDSLITSFCNKLEACGYYAGFYTSLSVANNLVSSHVRDRYALWIAQWNTHCSYQGSYGLWQYSSSGSVNGIAGRVDMDYAYVDYPSVIKNAGLNGYQNGGSYTAPQTSSIDEVAREVINGDWGNGNDRKNRLISAGYDYASVQNKVNELLGVKAYRKSVDELAREVIRGTWGNGSMRKHRLTQAGYDYDAVQKRVNELL
modifications: EL3_strain_Gv18-4
Take B3: the “log 10 of the ratio of surviving CFU” value in assay [1] is −3.0 log 10; in assay [3], −5.4 log 10; with G. piotii strain Gv_17 it was −1.5 log 10; in assay [4], −2.0 log 10. The “average of the log 10 activities of each construct across the four Gardnerella strains” value in assay [2] is −3.0 log 10. Besides, in assay [2], the “activity rank of all endolysins” value came out at 13.

B4: H1B1: natural Gardnerella prophage endolysin from strain HMP9231 (protein)
chain: MSKKGIDVSEWQGDIDFNAVKASGVEFVIIRAGYGIGCKDKWFEQNYRKAKTAGLDVGAYWYSYANSGFEAAEEAQSLMNMLSGKSFEYPVYFDLEEKSQLNRGRAFCDSLITSFCNKLEACGYYAGFYTSLSTANNLVSAHVRNRYALWIAQWNTHCNYQGSYGLWQYSSNGSVPGVAGRVDMDYAYVDYPSIIKNAGLNGCKNGGSDQAARTSSIDEVAREVINGAWGNGSTRKQRLTSAGYDYASVQNKVNELLGVKACRKSVDELAREVIRGAWGNGSTRKQRLAQAGYDYDTVQKRVNELL
modifications: EL1_strain_HMP9231
notes: natural Gardnerella prophage endolysin from strain HMP9231
Turning to B4, the “log 10 of the ratio of surviving CFU” value in assay [1] is −1.9 log 10; in assay [3], −3.5 log 10; with G. piotii strain Gv_17, −0.9 log 10; in assay [4], −1.3 log 10. The “average of the log 10 activities of each construct across the four Gardnerella strains” value in assay [2] is recorded as −1.9 log 10. Moreover, the “activity rank of all endolysins” value in assay [2] was 44.

B5: H4B4: natural Gardnerella prophage endolysin from strain Gv5-1 (protein)
chain: MSKKGIDVSEWQGDIDFNAVKASGVEFVIIRAGYGIGCKDKWFEQNYRKAKTCGLDVGAYWYSYANSGFEAAEEAQSCVNMLSGKSFEYPVYFDLEEKSQLNRGRAFCDSLITSFCSKLETYGYYAGFYTSLSVVNNLVSAHVRDRYALWIAQWNTHCSYQGSYGLWQYSSSGSVPGVAGRVDMDYAYVDYPSIIKNVGLNGCKNGGSDQATRTSSIDEVAREVINGAWGNGNERKQRLTSAGYDYASVQNKVNKLLGVKAYRKSVDELAREVIRGTWGNGNERKQRLAQAGYDYDTVQKRVNELL
modifications: EL4_strain_Gv5-1
As for B5, the “log 10 of the ratio of surviving CFU” value was −0.4 log 10 in assay [1], −2.0 log 10 in assay [3], −0.4 log 10 with G. piotii strain Gv_17 and −0.5 log 10 in assay [4]. For the same molecule, the “average of the log 10 activities of each construct across the four Gardnerella strains” value in assay [2] is on record as −0.8 log 10. Moreover, the “activity rank of all endolysins” value in assay [2] was 76.
